Measured values taken from patent US20260007756A1, “COMPOUND AND USE THEREOF” (COHERENT BIOPHARMA (SUZHOU) LIMITED, priority 2022, published 2026).
Values after ≈ are worked out from the molar mass of the structure shown. Like-named read-outs stand apart in the source and are kept apart here. Numbered stars: 1 amine (or outer) side, 2 acyl side, 3 side chain; on linkers, the order of the positions; unused ones are H or OH. Square brackets hold non-standard residues; d marks the D form. Side chains are listed from the residue outwards. Peptide text beside a SMILES is read from it. * marks the point of attachment. EuK = O=C(O)CC[C@H](NC(=O)N[C@@H](CCCCN*)C(=O)O)C(=O)O; Pteroyl = Nc1nc2ncc(CNc3ccc(C(=O)*)cc3)nc2c(=O)[nH]1; γGlu = O=C(O)[C@H](CCC(=O)[*:2])N[*:1]; X1 = O=C(Cc1ccc(CN[*:1])cc1)[*:2]; Pra = C#CC[C@H](N)C(=O)O; CO = O=C([*:1])[*:2]

Columns and labels:
[1] = Solubility study in PBS; assay type: physicochemical; details: aqueous buffer, thermodynamic from solid; PBS (pH 7.2 to 7.4); read-out: Solubility, concentration
Protocol: The mixture was vortexed for 2 min until the solid was dissolved. The solubility was calculated as: C=m/V, C: concentration, m: sample weight, V: PBS total volume.

[2] = system: HT-29 cell subcutaneous xenograft tumor; assay: Pharmacodynamic assessment, HT-29 xenograft model; assay type: in vivo, BALB/c nude mouse
Source text: Objective: Pre-clinical assessment of the efficacy of CR202 series of compounds for treating BALB/c nude mouse model with HT-29 cell subcutaneous xenograft tumor.
Procedures: HT-29 cells were subcutaneously grafted at the right back of the mice, and the mice were randomized when the mean tumor volume reached 100-150 mm^3. After the administration, the routine monitoring included the effect on tumor growth and the effect of treatment on the normal behavior of the animals, specifically the activity, food and water intake, weight gain or loss, the eyes, the hair, and other abnormal conditions. Clinical symptoms observed during the study were recorded in the raw data. After the administration was started, the body weight and tumor size of the mice were measured periodically. The tumor volume was calculated using the following formula: V=1/2×(a×b^2), where a and b denote the long diameter and short diameter of the tumor, respectively.

[3] = Plasma stability study 2; assay type: in vitro ADME; details: mouse plasma, 37° C.; for remaining at 0.5 h, 100 μg/mL / remaining at 1 h, 100 μg/mL / remaining at 2 h, 100 μg/mL / remaining at 4 h, 100 μg/mL / remaining at 6 h, 100 μg/mL: read-out: Residual rate of principal component
Protocol: • 1) The conjugate compounds were prepared into 1 mg/mL stock solutions with 0.1% TFA-acetonitrile water (1:1); • 2) 10 μL of 1 mg/mL compound stock solution was added into 90 μL of fresh plasma, and the mixture was well mixed by gentle shaking, and transferred to a thermostatic incubator at 37° C. for 0 h, 0.5 h, 1 h, 2 h, 4 h, 6 h, or 24 h of incubation; • 3) at the time points, samples were taken out and 300 μL of methanol solution (containing 10 ng/ml of terfenadine) was added for protein precipitation; • 4) the mixture was centrifuged (13 min, 4° C., 12000 rpm) and the supernatant was collected, and preserved in a −80° C. refrigerator; after collection, the samples were loaded for LC-MS analysis.

[4] = system: plasmin; details: PBS pH 7.4, 37° C.
Protocol: • 1) The compounds were formulated into 500 μg/mL stock solutions with PBS (pH 7.4); • 2) 60 μL of 500 μg/mL compound stock solution was added to 420 μL PBS (pH 7.4), before 60 μL of 0.2 U/mL plasmin (or 60 μL of 0.5 U/mL sulfatase) was added, and the mixture was well mixed by gentle shaking; • 3) The cleavage reaction system in step 2) was transferred to a thermostatic incubator at 37° C. for 0 h, 1 h, 2 h, 4 h, or 24 h of incubation. Samples were taken and loaded at various time points for LC-MS analysis.

[5] = system: 22RV1; assay type: cell-based, human; details: 22RV1, 72 h, CellTiter-Glo
Source text: (§1) Negative and blank controls were set.

[6] = system: MDA-MB-231; assay type: cell-based, human; details: MDA-MB-231, 72 h, CellTiter-Glo
Source text: as §1

[7] = 10.9 mg/kg i.v BIW×3, day 25 after grouping
[8] = 22.7 mg/kg i.v BIW×3, day 25 after grouping

## C#CC[C@H](NC(=O)[C@H](CCCCN)NC(=O)[C@H](CC(=O)O)NC(=O)[C@H](CC(=O)O)NC(=O)Cc1ccc(CNC(=O)NCCCC[C@H](NC(=O)N[C@@H](CCC(=O)O)C(=O)O)C(=O)O)cc1)C(=O)N[C@@H](CCCCNC(=O)CC[C@H](NC(=O)c1ccc(NCc2cnc3[nH]c(N)nc(=O)c3n2)cc1)C(=O)O)C(N)=O [CR202W4] ({EuK-CO}-[X1]DDK[Pra]K([γGlu-Pteroyl])-NH2)
[1]
  solubility: 2800 µg/mL (≈ 1850 µM)

## CCOCCNS(=O)(=O)NC(=O)OCCOCCNC(=O)[C@H](Cc1cn(CCOC(=O)NS(=O)(=O)NCCOCCOC(=O)N[C@H](C(=O)N[C@@H](CCCNC(N)=O)C(=O)Nc2ccc(COC(=O)N(CCOCCC#Cc3cccc4c3CN(C3CCC(=O)NC3=O)C4=O)[C@H]3CC[C@@H](n4cc(-c5ccc(Nc6ncc7c(n6)N(C)[C@H](CC)C(=O)N7C)cc5)nn4)CC3)cc2)C(C)C)nn1)NC(=O)CC[C@H](NC(=O)c1ccc(NCc2cnc3nc(N)nc(O)c3n2)cc1)C(=O)O (stereo partly drawn) [CR202HR]
[2]; [7]
  Mean tumor volume: 946.05 mm^3
  TGI: 54.51%
[2]; [8]
  Mean tumor volume: 614.73 mm^3
  TGI: 70.44%

## CC[C@@H]1C(=O)N(C)c2cnc(Nc3ccc(-c4cn([C@H]5CC[C@@H](N(CCOCCC#Cc6cccc7c6CN(C6CCC(=O)NC6=O)C7=O)C(=O)OCc6ccc(NC(=O)[C@H](CCCCN)NC(=O)[C@H](CC(C)C)NC(=O)[C@@H](NC(=O)COCCOCCn7cc(C[C@H](NC(=O)[C@H](CCCCN)NC(=O)[C@H](CC(=O)O)NC(=O)[C@H](CC(=O)O)NC(=O)Cc8ccc(CNC(=O)NCCCC[C@H](NC(=O)N[C@@H](CCC(=O)O)C(=O)O)C(=O)O)cc8)C(=O)N[C@@H](CCCCNC(=O)CC[C@H](NC(=O)c8ccc(NCc9cnc%10[nH]c(N)nc(=O)c%10n9)cc8)C(=O)O)C(N)=O)nn7)C(C)C)cc6)CC5)nn4)cc3OC)nc2N1C1CCCC1 (stereo partly drawn) [CR202V8]
[3]; 0 h
  CR20274 release rate (actual release/theoretical release): 0.06%
  Residual rate of principal component: 78.37%
[3]; 0.5 h
  CR20274 release rate (actual release/theoretical release): 1.94%
  remaining at 0.5 h, 100 μg/mL: 50.9%
[3]; 1 h
  CR20274 release rate (actual release/theoretical release): 5.56%
  remaining at 1 h, 100 μg/mL: 59.9%
[3]; 2 h
  CR20274 release rate (actual release/theoretical release): 7.07%
  remaining at 2 h, 100 μg/mL: 49.5%
[3]; 4 h
  CR20274 release rate (actual release/theoretical release): 14.20%
  remaining at 4 h, 100 μg/mL: 41.2%
[3]; 6 h
  CR20274 release rate (actual release/theoretical release): 14.58%
  remaining at 6 h, 100 μg/mL: 32.5%
[3]; 24 h
  CR20274 release rate (actual release/theoretical release): 105.58%
  Residual rate of principal component: −2.40%
[4]; 0 h
  CR20274 release rate of compounds after cleavage: 22%
  Principal component residue of compounds after cleavage: 8%
[4]; 1 h
  CR20274 release rate of compounds after cleavage: 100%
  Principal component residue of compounds after cleavage: 1%
[4]; 2 h
  CR20274 release rate of compounds after cleavage: 100%
  Principal component residue of compounds after cleavage: 1%
[4]; 4 h
  CR20274 release rate of compounds after cleavage: 100%
  Principal component residue of compounds after cleavage: 0%
[4]; 24 h
  CR20274 release rate of compounds after cleavage: 100%
  Principal component residue of compounds after cleavage: 0%
[1]
  solubility: 7500 µg/mL (≈ 2450 µM)
[5]
  IC50: 20.5 nM
[6]
  IC50: 24.1 nM

## CC[C@@H]1C(=O)N(C)c2cnc(Nc3ccc(-c4cn([C@H]5CC[C@@H](N(CCOCCC#Cc6cccc7c6CN(C6CCC(=O)NC6=O)C7=O)C(=O)CNC(=O)[C@@H]6CCCN6C(=O)[C@H](CCCNC(N)=O)NC(=O)[C@@H](NC(=O)COCCOCCn6cc(C[C@H](NC(=O)[C@H](CCCCN)NC(=O)[C@H](CC(=O)O)NC(=O)[C@H](CC(=O)O)NC(=O)Cc7ccc(CNC(=O)NCCCC[C@H](NC(=O)N[C@@H](CCC(=O)O)C(=O)O)C(=O)O)cc7)C(=O)N[C@@H](CCCCNC(=O)CC[C@H](NC(=O)c7ccc(NCc8cnc9[nH]c(N)nc(=O)c9n8)cc7)C(=O)O)C(N)=O)nn6)C(C)C)CC5)nn4)cc3OC)nc2N1C1CCCC1 (stereo partly drawn) [CR202GQ]
[5]
  IC50: 3160 nM
[6]
  IC50: 4480 nM

## CC[C@@H]1C(=O)N(C)c2cnc(Nc3ccc(-c4cn([C@H]5CC[C@@H](N(CCOCCC#Cc6cccc7c6CN(C6CCC(=O)NC6=O)C7=O)C(=O)OCc6ccc(NC(=O)[C@H](CC(N)=O)NC(=O)[C@H](CC(N)=O)NC(=O)CNC(=O)COCCOCCn7cc(C[C@H](NC(=O)[C@H](CCCCN)NC(=O)[C@H](CC(=O)O)NC(=O)[C@H](CC(=O)O)NC(=O)Cc8ccc(CNC(=O)NCCCC[C@H](NC(=O)N[C@@H](CCC(=O)O)C(=O)O)C(=O)O)cc8)C(=O)N[C@@H](CCCCNC(=O)CC[C@H](NC(=O)c8ccc(NCc9cnc%10[nH]c(N)nc(=O)c%10n9)cc8)C(=O)O)C(N)=O)nn7)cc6)CC5)nn4)cc3OC)nc2N1C1CCCC1 (stereo partly drawn) [CR202V9]
[3]; 0 h
  CR20274 release rate (actual release/theoretical release): 0.11%
  Residual rate of principal component: 99.22%
[3]; 0.5 h
  CR20274 release rate (actual release/theoretical release): 0.17%
  remaining at 0.5 h, 100 μg/mL: 99.8%
[3]; 1 h
  CR20274 release rate (actual release/theoretical release): 0.22%
  remaining at 1 h, 100 μg/mL: 98.4%
[3]; 2 h
  CR20274 release rate (actual release/theoretical release): 0.21%
  remaining at 2 h, 100 μg/mL: 89.6%
[3]; 4 h
  CR20274 release rate (actual release/theoretical release): 0.25%
  remaining at 4 h, 100 μg/mL: 67.1%
[3]; 6 h
  CR20274 release rate (actual release/theoretical release): 0.30%
  remaining at 6 h, 100 μg/mL: 66.3%
[3]; 24 h
  CR20274 release rate (actual release/theoretical release): 1.46%
  Residual rate of principal component: 0.62%
[1]
  solubility: 15800 µg/mL (≈ 5260 µM)

## CC[C@@H]1C(=O)N(C)c2cnc(Nc3ccc(-c4cn([C@H]5CC[C@@H](N(CCOCCC#Cc6cccc7c6CN(C6CCC(=O)NC6=O)C7=O)C(=O)OCc6ccc(NC(=O)[C@H](CCCNC(N)=O)NC(=O)[C@@H](NC(=O)COCCOCCn7cc(C[C@H](NC(=O)[C@H](CCCCN)NC(=O)[C@H](CC(=O)O)NC(=O)[C@H](CC(=O)O)NC(=O)Cc8ccc(CNC(=O)NCCCC[C@H](NC(=O)N[C@@H](CCC(=O)O)C(=O)O)C(=O)O)cc8)C(=O)N[C@@H](CCCCNC(=O)CC[C@H](NC(=O)c8ccc(NCc9cnc%10[nH]c(N)nc(=O)c%10n9)cc8)C(=O)O)C(N)=O)nn7)C(C)C)c(OC)c6)CC5)nn4)cc3OC)nc2N1C1CCCC1 (stereo partly drawn) [CR202FU]
[5]
  IC50: 469 nM
[6]
  IC50: 792 nM

## CC[C@@H]1C(=O)N(C)c2cnc(Nc3ccc(-c4cn([C@H]5CC[C@@H](N(CCOCCC#Cc6cccc7c6CN(C6CCC(=O)NC6=O)C7=O)C(=O)OCc6ccc(NC(=O)[C@H](CCCNC(N)=O)NC(=O)[C@@H](NC(=O)OCCOCCNS(=O)(=O)NC(=O)OCCn7cc(C[C@H](NC(=O)[C@H](CCCCN)NC(=O)[C@H](CC(=O)O)NC(=O)[C@H](CC(=O)O)NC(=O)Cc8ccc(CNC(=O)NCCCC[C@H](NC(=O)N[C@@H](CCC(=O)O)C(=O)O)C(=O)O)cc8)C(=O)N[C@@H](CCCCNC(=O)CC[C@H](NC(=O)c8ccc(NCc9cnc%10[nH]c(N)nc(=O)c%10n9)cc8)C(=O)O)C(N)=O)nn7)C(C)C)cc6)CC5)nn4)cc3OC)nc2N1C1CCCC1 (stereo partly drawn) [CR202GM]
[5]
  IC50: 287 nM
[6]
  IC50: 512 nM

## CC[C@@H]1C(=O)N(C)c2cnc(Nc3ccc(-c4cn([C@H]5CC[C@@H](N(CCOCCC#Cc6cccc7c6CN(C6CCC(=O)NC6=O)C7=O)C(=O)OC[C@@H](C)SSC[C@H](NC(=O)[C@H](CCCCN)NC(=O)[C@H](CC(=O)O)NC(=O)[C@H](CC(=O)O)NC(=O)Cc6ccc(CNC(=O)NCCCC[C@H](NC(=O)N[C@@H](CCC(=O)O)C(=O)O)C(=O)O)cc6)C(=O)N[C@@H](CCCCNC(=O)CC[C@H](NC(=O)c6ccc(NCc7cnc8[nH]c(N)nc(=O)c8n7)cc6)C(=O)O)C(N)=O)CC5)nn4)cc3OC)nc2N1C1CCCC1 (stereo partly drawn) [CR202HV]
[5]
  IC50: 155 nM
[6]
  IC50: 14.2 nM

## CC[C@@H]1C(=O)N(C)c2cnc(Nc3ccc(-c4cn([C@H]5CC[C@@H](N(CCOCCC#Cc6cccc7c6CN(C6CCC(=O)NC6=O)C7=O)C(=O)NCCNC(=O)OCc6ccc(NC(=O)[C@H](CCCNC(N)=O)NC(=O)[C@@H](NC(=O)COCCOCCn7cc(C[C@H](NC(=O)[C@H](CCCCN)NC(=O)[C@H](CC(=O)O)NC(=O)[C@H](CC(=O)O)NC(=O)Cc8ccc(CNC(=O)NCCCC[C@H](NC(=O)N[C@@H](CCC(=O)O)C(=O)O)C(=O)O)cc8)C(=O)N[C@@H](CCCCNC(=O)CC[C@H](NC(=O)c8ccc(NCc9cnc%10[nH]c(N)nc(=O)c%10n9)cc8)C(=O)O)C(N)=O)nn7)C(C)C)cc6)CC5)nn4)cc3OC)nc2N1C1CCCC1 (stereo partly drawn) [CR202HJ]
[5]
  IC50: 1220 nM
[6]
  IC50: 3650 nM
